Measured values: patent US20110243967A1

Columns and labels:
[1] = target: pMCMV-loaded H-2 L^d (mouse) (UniProt P01897)
[2] = target: serologically reactive H-2 L^d on RENCA cells (murine) (UniProt P01897); assay: flow cytometry on unstimulated RENCA cells
[3] = target: serologically reactive H-2 L^d on RENCA cells (murine) (UniProt P01897); assay: flow cytometry on γ-IFN stimulated RENCA cells (5-50 units/ml)
[4] = target: QL9-loaded H-2 L^d (mouse) (UniProt P01897); assay: flow cytometry on L^d cells loaded with graded peptide concentrations
[5] = target: p2Ca-loaded H-2 L^d (mouse) (UniProt P01897); assay: as above
[6] = target: QL9-loaded H-2 L^d (mouse) (UniProt P01897); assay: flow cytometry on peptide-loaded RMA-S L^d cells; mAb 30.5.7 then PE-labelled goat anti-mouse IgG
[7] = target: SL9-loaded H-2 L^d (mouse) (UniProt P01897); assay: as above
[8] = target: p2Ca-loaded H-2 L^d (mouse) (UniProt P01897); assay: as above
tum (mouse) = assay: as above
[9] = target: unloaded H-2 L^d on RMA-S L^d cells (mouse) (UniProt P01897); assay: flow cytometry on RMA-S L^d cells, no peptide, bar '37 degrees'; mAb 30.5.7 then PE-labelled goat anti-mouse IgG
[10] = target: unloaded H-2 L^d on RMA-S L^d cells (mouse) (UniProt P01897); assay: flow cytometry on RMA-S L^d cells, no peptide, bar '22 degrees' (the legend says 27°C); mAb 30.5.7 then PE-labelled goat anti-mouse IgG
[11] = target: SIY-loaded H-2 K^bm3 (mouse); assay: flow cytometry on peptide-loaded T2 K^bm3 cells
[12] = target: pMCMV-loaded H-2 L^d (mouse) (UniProt P01897); remark: listed apart in the source
[13] = target: QL9-loaded H-2 L^d (mouse) (UniProt P01897); assay: flow cytometry, direct saturation of FITC-30.5.7 Fab on peptide-loaded RMA-S L^d cells
[14] = target: SL9-loaded H-2 L^d (mouse) (UniProt P01897); assay: as above
[15] = target: p2Ca-loaded H-2 L^d (mouse) (UniProt P01897); assay: as above
[16] = target: QL9-loaded H-2 L^d (mouse) (UniProt P01897); assay: flow cytometry, serial dilutions on QL9-loaded RMA-S L^d cells, detection with H57-FITC
[17] = target: p2Ca-loaded H-2 L^d (mouse) (UniProt P01897); assay: flow cytometry, serial dilutions on p2Ca-loaded RMA-S L^d cells, detection with H57-FITC
[18] = target: p2Ca-loaded H-2 L^d (mouse) (UniProt P01897); assay: competition with constant FITC-30.5.7 Fab on peptide-loaded RMA-S L^d cells, flow cytometry
[19] = target: QL9-loaded H-2 L^d (mouse) (UniProt P01897); assay: flow cytometry on RMA-S L^d cells loaded with 100 µM peptide; two-fold dilutions of soluble monovalent 2C TCR, detected with H57-FITC

QL9-loaded H-2 L^d (mouse), sequence (P01897 25-362): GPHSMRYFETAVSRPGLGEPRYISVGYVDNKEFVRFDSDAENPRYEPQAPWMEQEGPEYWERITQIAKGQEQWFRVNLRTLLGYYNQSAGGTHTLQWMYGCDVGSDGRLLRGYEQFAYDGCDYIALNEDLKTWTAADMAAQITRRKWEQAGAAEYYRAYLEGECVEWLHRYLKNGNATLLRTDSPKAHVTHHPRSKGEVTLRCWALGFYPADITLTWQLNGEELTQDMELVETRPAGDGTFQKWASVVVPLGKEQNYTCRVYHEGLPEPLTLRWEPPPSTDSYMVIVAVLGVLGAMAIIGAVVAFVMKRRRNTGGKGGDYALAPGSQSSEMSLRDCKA
p2Ca-loaded H-2 L^d (mouse), sequence (P01897 25-362): as above
serologically reactive H-2 L^d on RENCA cells (murine), sequence (P01897 25-362): as above
unloaded H-2 L^d on RMA-S L^d cells (mouse), sequence (P01897 25-309): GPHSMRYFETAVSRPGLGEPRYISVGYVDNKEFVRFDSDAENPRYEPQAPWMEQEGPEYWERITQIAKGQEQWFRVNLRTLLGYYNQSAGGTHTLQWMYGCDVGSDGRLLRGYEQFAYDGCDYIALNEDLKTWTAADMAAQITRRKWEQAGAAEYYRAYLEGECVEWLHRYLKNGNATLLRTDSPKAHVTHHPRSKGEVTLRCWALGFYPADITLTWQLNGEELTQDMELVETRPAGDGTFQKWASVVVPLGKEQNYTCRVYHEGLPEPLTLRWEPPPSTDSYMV
SL9-loaded H-2 L^d (mouse), sequence (P01897 25-309): as above
pMCMV-loaded H-2 L^d (mouse), sequence (P01897 25-309): as above
soluble divalent 2C TCR/Ig, sequence (A2KF29 whole entry, looked up, tested part not stated): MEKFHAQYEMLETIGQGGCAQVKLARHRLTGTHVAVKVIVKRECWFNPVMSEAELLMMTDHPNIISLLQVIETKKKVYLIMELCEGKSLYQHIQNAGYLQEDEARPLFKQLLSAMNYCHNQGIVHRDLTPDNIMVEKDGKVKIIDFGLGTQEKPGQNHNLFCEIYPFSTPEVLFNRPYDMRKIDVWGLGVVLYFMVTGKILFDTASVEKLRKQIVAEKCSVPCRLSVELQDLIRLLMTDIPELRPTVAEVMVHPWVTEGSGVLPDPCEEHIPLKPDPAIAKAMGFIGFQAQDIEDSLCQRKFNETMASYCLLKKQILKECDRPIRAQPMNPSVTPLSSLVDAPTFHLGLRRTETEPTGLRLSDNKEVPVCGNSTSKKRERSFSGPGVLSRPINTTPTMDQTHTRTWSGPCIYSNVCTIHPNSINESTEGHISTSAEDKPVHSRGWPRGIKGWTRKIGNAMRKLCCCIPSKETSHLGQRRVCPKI

For mAb 30.5.7 (antibody), the Mean Channel Fluorescence (gp 70 (mouse)) was 677, the Mean Channel Fluorescence [1] was 648 and the MCF [2] was 500. It also gave an MCF [3] of 2670 to 3040, an MCF [4] of 3000 and an MCF [5] of 3000. For the same substance, the Mean Channel Fluorescence [6] was 688, the Mean Channel Fluorescence [7] was 556 and the Mean Channel Fluorescence [8] was 693. For the same substance, the Mean Channel Fluorescence (tum (mouse)) was 578, the Mean Channel Fluorescence [9] was 60 and the Mean Channel Fluorescence [10] was 347.
Substance “soluble divalent 2C TCR/Ig (from UniProt A2KF29)” has an MCF [11] of 36.
For FITC-labeled 30.5.7 Fab, the Kd [12] was 4.8 nM, the Kd [13] was 12.2 nM and the Kd [14] was 4.8 to 6.4 nM. The Kd [15] was 5.8 nM.
For soluble monovalent 2C TCR, the concentration required to detect binding [16] was > 100 nM, the concentration required to detect binding [17] was > 3000 nM and the Kapp [18] was > 2000 nM. For the same substance, the Kd [18] was > 2000 nM and the EC50 (read off the curve) [19] was 300 nM.
